# Data reported in patent publication US20090202549A1 (published 2009).
# T1: human p40 single mutant M23T (human, UniProt P29460 23-328)
# T1 construct: transiently expressed in HEK293E cells, supernatant used
# T1 sequence: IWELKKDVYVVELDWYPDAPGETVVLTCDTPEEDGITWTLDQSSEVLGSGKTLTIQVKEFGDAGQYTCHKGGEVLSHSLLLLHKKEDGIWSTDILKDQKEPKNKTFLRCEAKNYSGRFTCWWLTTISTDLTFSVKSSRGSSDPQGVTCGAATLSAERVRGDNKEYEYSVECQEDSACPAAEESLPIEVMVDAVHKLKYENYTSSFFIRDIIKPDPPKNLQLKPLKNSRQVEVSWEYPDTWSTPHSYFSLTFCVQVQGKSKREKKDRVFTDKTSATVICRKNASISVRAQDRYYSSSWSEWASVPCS
# T2: human p40 single mutant E45A (human, UniProt P29460 23-328)
# T2 construct: transiently expressed in HEK293E cells, supernatant used
# T2 sequence: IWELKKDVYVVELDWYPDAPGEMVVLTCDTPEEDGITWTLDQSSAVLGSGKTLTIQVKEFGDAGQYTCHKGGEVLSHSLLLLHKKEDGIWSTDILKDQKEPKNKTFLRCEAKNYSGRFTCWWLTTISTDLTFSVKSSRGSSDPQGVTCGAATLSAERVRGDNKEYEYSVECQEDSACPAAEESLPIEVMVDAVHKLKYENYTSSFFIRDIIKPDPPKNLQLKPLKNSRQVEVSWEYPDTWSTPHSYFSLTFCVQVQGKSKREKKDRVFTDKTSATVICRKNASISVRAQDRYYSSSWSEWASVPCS
# T3: human p40 single mutant S43R (human, UniProt P29460 23-328)
# T3 construct: transiently expressed in HEK293E cells, supernatant used
# T3 sequence: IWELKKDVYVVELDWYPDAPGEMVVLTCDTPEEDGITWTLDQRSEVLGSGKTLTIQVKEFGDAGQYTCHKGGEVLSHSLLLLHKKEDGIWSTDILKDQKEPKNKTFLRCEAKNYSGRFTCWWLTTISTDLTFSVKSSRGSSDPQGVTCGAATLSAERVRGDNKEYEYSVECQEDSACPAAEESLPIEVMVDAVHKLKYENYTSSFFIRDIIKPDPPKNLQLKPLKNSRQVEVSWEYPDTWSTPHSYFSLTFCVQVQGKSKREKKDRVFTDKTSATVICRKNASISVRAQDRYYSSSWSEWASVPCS
# T4: human p40 single mutant L40T (human, UniProt P29460 23-328)
# T4 construct: transiently expressed in HEK293E cells, supernatant used
# T4 sequence: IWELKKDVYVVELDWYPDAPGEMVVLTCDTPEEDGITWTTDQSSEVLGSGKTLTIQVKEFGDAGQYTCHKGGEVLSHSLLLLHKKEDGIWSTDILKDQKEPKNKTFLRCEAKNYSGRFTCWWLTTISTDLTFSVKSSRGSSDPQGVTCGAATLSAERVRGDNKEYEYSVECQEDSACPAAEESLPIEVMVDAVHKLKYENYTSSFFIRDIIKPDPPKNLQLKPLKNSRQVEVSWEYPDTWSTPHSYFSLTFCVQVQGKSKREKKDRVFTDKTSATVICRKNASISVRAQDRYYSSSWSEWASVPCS
# Experiments:
# Test in all cases: capture assay, relative binding affinity of p40 mAb to p40 muteins (FIG. 4)
# [1] = target: T1, human p40 single mutant M23T
# Experimental: (§1) In brief, MSD high bind plates (Meso Scale Discovery, MD) were coated with 5 μl of a capture monoclonal antibody (5 μg/ml) at room temperature for 1 hour. […] One-hundred and fifty (150) μl of 5% MSD Blocker A buffer was added to each well and incubated for 1 hr at room temperature. Plates were washed three times with 0.1 M HEPES buffer (pH 7.4). These protein-charged ELISA plates were incubated with 25 μl of different transiently expressed p40 mutant supernatants (1:10 dilution with 0.1 M HEPES buffer, pH 7.4) for 1 hr at room temperature. The plates were washed three times with 0.1 M HEPES buffer (pH 7.4). Twenty-five (25) μl of different concentrations of MSD Sulfo-TAG labeled p40 mAb, ranging from 0 to 20 μg/ml, were dispensed to micro-wells. After incubation for 2 hrs shaking at room temperature, plates were washed 3 times with 0.1 M HEPES buffer (pH 7.4). One hundred and fifty (150) μl of diluted MSD Read Buffer T was dispensed into each well and the plates were analyzed with a SECTOR imager (MSD).
# (§2) The relative binding affinity of p40 mAb to different mutant proteins was further analyzed by a capture assay. […] The other mutations, M23T, L40T and S43R, in the interface, each reduced binding by approximately 40%. E45A reduced binding by about 70%.
# [2] = target: T2, human p40 single mutant E45A
# Experimental: as §1, §2
# [3] = target: T3, human p40 single mutant S43R
# Experimental: as §1, §2
# [4] = target: T4, human p40 single mutant L40T
# Experimental: as §1, §2
binder,measurement,setting,value
"p40 mAb (fully human monoclonal antibody directed against the p40 subunit of human IL-12 and IL-23) (antibody, V domains shown, Fully human IgG made in a mammalian cell line; also called IL-12 p40 antibody; IL-12p40 antibody) VH: EVQLVQSGAEVKKPGESLKISCKGSGYSFTTYWLGWVRQMPGKGLDWIGIMSPVDSDIRYSPSFQGQVTMSVDKSITTAYLQWNSLKASDTAMYYCARRRPGQGYFDFWGQGTLVTVSS VL: DIQMTQSPSSLSASVGDRVTITCRASQGISSWLAWYQQKPEKAPKSLIYAASSLQSGVPSRFSGSGSGTDFTLTISSLQPEDFATYYCQQYNIYPYTFGQGTKLEIKR",reduction of binding (relative binding affinity),[1],~40%
same,reduction of binding (relative binding affinity),[2],~70%
same,reduction of binding (relative binding affinity),[3],~40%
same,reduction of binding (relative binding affinity),[4],~40%
